Test results as given in patent US7491701 (BOYS TOWN NATIONAL RESEARCH HOSPITAL, dated 2009).
Where no end group is shown, it is not given here.

B1: OTOF CTERM E47 (peptide)
peptide: CYSLPGYLAKKILGA
modifications: not fully specified (residue 1); also: N-terminal Cys coupled to Sulfolink gel matrix (immobilised)
notes: also called E47 peptide; exon 47 (E47) otoferlin C-terminal peptide
B2: OTOF CTERM E48 (peptide)
peptide: CYSLPGYMVKKLLGA
modifications: not fully specified (residue 1); also: N-terminal Cys coupled to Sulfolink gel matrix (immobilised)
notes: also called E48 peptide; exon 48 (E48) otoferlin C-terminal peptide

Key:
[1] = target: T1, HS9A_MOUSE, heat shock protein HSP-90 alpha (HSP 86) (mouse, UniProt P07901 2-733); experiment: peptide affinity matrix pull-down from mouse brain extract, Coomassie-stained SDS-PAGE (FIG. 1A)
T1 construct: Native protein captured from mouse brain extract; identified by mass spectrometry and western blot; also called p97; 97-kilodalton protein
Protocol: FIG. 1A Coomassie stained gel, FIG. 1B Western analysis of an identical gel with antibody to beta-COP. MW=molecular weight markers, Total=13,200 rpm supernatant loaded onto column matrix. E47=sample eluted from OTOF CTERM E47 column matrix. BC1=672 BC1, E48=OTOF CTERM E48, CC1=670 CC1. Brain extracts were made in a Potter-Elvehjem Teflon glass homogenizer using 1 ml/100 mg tissue of TNGD (50 mM TRIS 7.5, 75 mM NaCl, 10 mM EGTA, 2 mM EDTA) plus protease inhibitor 10 ul/ml (Sigma P8340). Protein extracts were absorbed to four Sulfolink-peptide affinity matrices and washed four times with TNGD. The column matrix was transferred to PCR tubes and made 1× with SDS buffer (Pierce Cat. No. 39001) and heated at 95° C. for 5 minutes. Samples were separated on a 4-20% polyacrylamide gel. E47 peptide corresponds to otoferlin exon 47 C-terminal. E48 peptide corresponds to otoferlin exon 48 C-terminal. BC1 and CC1 peptides are specific controls for E47 and E48 respectively where a di-serine replaces di-lysine. Antibody to beta-COP (Ocogene cat # PC175) was used at a dilution of 1:1500.

[2] = target: T2, recombinant human Hsp90α (Stressgen SPP-776, Lot No. B201401) (human, UniProt P07900 1-732); experiment: peptide affinity column, elution with 600 mM NaCl, silver-stained SDS-PAGE (no eluted protein was detected from the E47 column)
T2 construct: Bought recombinant protein; also called purified Hsp90α; purified human Hsp90α
Protocol: The columns was preabsorbed with 100 μl of 10% BSA for 30 minutes at 4° C. and mixed by rotation. The columns were then washed five times with 0.4 ml of TNGD. Four hundred (400) ng of recombinant human Hsp90α (Stressgen SPP-776, Lot No. B201401) in 100 μl of TNGD was added to each column for 30 minutes at 4° C. and mixed by rotation. The unabsorbed protein was removed by centrifugation. The columns were washed five times with 0.4 ml of TNGD, then eluted with 100 μl TNGD+600 mM NaCl. Samples were analyzed on a 4-20% SDS-PAGE gel followed by silver staining using a BIORAD Silver Stain Plus kit (No. 161-0449) as show in FIG. 5. […] The amount of protein added and eluted was determined by scanning the silver stained gel using a Alpha Imager 2200 gel imaging system. Approximately 10% of the protein corresponding to Hsp90 molecular weight was eluted with 600 mM NaCl+TGND from the E48 column while no eluted protein was detected with the same elution conditions from the E47 column.

| Binder | binding result [1] | binding result [2] |
| --- | --- | --- |
| B1 | no binding | no binding |
| B2 | binds | – |
